Assay results from IntAct's records for PubMed 22904686.

B1: Latent membrane protein 1 (Epstein-Barr virus (strain B95-8) (HHV-4)), P03230 (parent)
chain: MEHDLERGPPGPRRPPRGPPLSSSLGLALLLLLLALLFWLYIVMSDWTGGALLVLYSFALMLIIIILIIFIFRRDLLCPLGALCILLLMITLLLIALWNLHGQALFLGIVLFIFGCLLVLGIWIYLLEMLWRLGATIWQLLAFFLAFFLDLILLIIALYLQQNWWTLLVDLLWLLLFLAILIWMYYHGQRHSDEHHHDDSLPHPQQATDDSGHESDSNSNEGRHHLLVSGAGDGPPLCSQNLGAPGGGPDNGPQDPDNTDDNGPQDPDNTDDNGPHDPLPQDPDNTDDNGPQDPDNTDDNGPHDPLPHSPSDSAGNDGGPPQLTEEVENKGGDQGPPLMTDGGGGHSHDSGHGGGDPHLPTLLLGSSGSGGDDDDPHGPVQLSYYD

Variants of: B1
Conditions: with tnik_human TNIK

Variant | effect of a mutation on the interaction
Y384G | disrupting interaction strength
